Reference: US20110200533A1 (GUERBET, published 2011)
Ends that are not written are not given here.

How the values were obtained:
[1] = target: T1, recombinant human VCAM-1/Fc chimera (human, UniProt P19320 25-698); experiment: ELISA: peptide immobilized on the plate, VCAM-1/Fc at increasing concentrations (3.9×10^-9-4.9×10^-7 M), detected with a mouse anti-human VCAM-1 mAb; apparent Kd
T1 construct: The cell adhesion assay says only 'the VCAM-1 protein'; also called VCAM-1 molecule; VCAM-1 protein; not shown: Fc part of the chimera
T1 sequence (looked up): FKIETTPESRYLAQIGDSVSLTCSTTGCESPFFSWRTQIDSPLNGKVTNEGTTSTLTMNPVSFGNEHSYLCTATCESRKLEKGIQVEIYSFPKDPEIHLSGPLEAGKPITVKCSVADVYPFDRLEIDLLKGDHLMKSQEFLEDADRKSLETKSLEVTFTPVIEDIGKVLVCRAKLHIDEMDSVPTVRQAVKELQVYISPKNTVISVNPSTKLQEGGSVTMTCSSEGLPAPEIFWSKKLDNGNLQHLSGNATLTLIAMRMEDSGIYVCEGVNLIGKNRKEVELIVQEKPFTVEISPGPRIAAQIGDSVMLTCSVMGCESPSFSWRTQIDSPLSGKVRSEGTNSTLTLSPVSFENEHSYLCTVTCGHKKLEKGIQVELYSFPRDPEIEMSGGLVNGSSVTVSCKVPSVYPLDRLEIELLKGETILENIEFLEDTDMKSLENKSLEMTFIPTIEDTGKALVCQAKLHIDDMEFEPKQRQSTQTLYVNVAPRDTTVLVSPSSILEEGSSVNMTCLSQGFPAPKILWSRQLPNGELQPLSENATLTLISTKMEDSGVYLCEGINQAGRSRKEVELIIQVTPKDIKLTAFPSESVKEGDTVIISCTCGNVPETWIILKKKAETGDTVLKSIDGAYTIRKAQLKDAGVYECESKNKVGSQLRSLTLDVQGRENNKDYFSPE

[2] = target: T1, recombinant human VCAM-1/Fc chimera; experiment: cell-based or functional assay

CNNSKSHTC (not fully specified (bridges); also: cyclic, type of ring bond not given here, also called VCAM PEPTIDE) [cyclic peptide CNNSKSHTC (SEQ ID No. 2)]
Kd [1]: 0.135 µM
inhibition of cell adhesion (PMA-stimulated Jurkat cells on immobilized VCAM-1), IC50 [2]: 63 µM
